Measured values published in publication PMC11066842, “Formation of Calprotectin Inhibits Amyloid Aggregation of S100A8 and S100A9 Proteins” (ACS Chemical Neuroscience, 2024).

B1: S100A9 (calgranulin B) (natural protein)
chain: TCKMSQLERNIETIINTFHQYSVKLGHPDTLNQGEFKELVRKDLQNFLKKENKNEKVIEHIMEDLDTNADKQLSFEEFIMLMARLTWASHEKMHEGDEGPGHHHKPGLGEGTP
notes: S100A9 (calgranulin B); construct His6-SUMO-S100A9 in pET28a, tag removed by SENP1; also called S100A9 subunit of calprotectin (CP); source: E. coli BL21(DE3), purified (Ni2+ Sepharose, SENP1 cleavage of His6-SUMO, second Ni2+ column, Superdex 75 SEC); not shown: His6, N-terminal, cleaved; SUMO, N-terminal, cleaved
B2: S100A8 (calgranulin A) (natural protein)
chain: MLTELEKALNSIIDVYHKYSLIKGNFHAVYRDDLKKLLETECPQYIRKKGADVWFKELDINTDGAVNFQEFLILVIKMGVAAHKKSHEESHKE
notes: S100A8 (calgranulin A); construct His6-SUMO-S100A8 in pET28a, tag removed by SENP1; also called S100A8 subunit of calprotectin (CP); source: E. coli BL21(DE3), purified (Ni2+ Sepharose, SENP1 cleavage of His6-SUMO, second Ni2+ column, Superdex 75 SEC); not shown: His6, N-terminal, cleaved; SUMO, N-terminal, cleaved

Key:
[1] = target: the molecule itself; assay: dynamic light scattering; 100 uM S100A8, 100 uM S100A9, 50 uM CP; 50 mM HEPES pH 7.4; 8 °C; hydrodynamic radius compared with published radii of S100 dimers
S100A9 (calgranulin B) = target: B1; assay: SEC; Tricorn 10/300 column with Superdex 75 prep grade, 50 mM HEPES pH 7.4, 1 mM EDTA, 1 mM TCEP, no calcium; CP formed from an equimolar mix of S100A8 and S100A9 by acid denaturation (pH 2.0-2.5), stepwise dialysis and anion exchange; conditions: both partners purified

Row | Binder | binding result [1] | binding result (S100A9 (calgranulin B))
1 | B1 | binds | 
2 | B2 | binds | binds
